These results are taken from patent US20100248978A1, “METHOD FOR IDENTIFYING THE INTERACTION PARTNER OF AN ACTIVE AGENT” (Bayer Cropscience AG, priority 2007, published 2010).

The target of data set [1] is T1, recombinant HPPD (Arabidopsis thaliana, UniProt P93836).
T1 construct: His-tag
T1 sequence (P93836 1-445): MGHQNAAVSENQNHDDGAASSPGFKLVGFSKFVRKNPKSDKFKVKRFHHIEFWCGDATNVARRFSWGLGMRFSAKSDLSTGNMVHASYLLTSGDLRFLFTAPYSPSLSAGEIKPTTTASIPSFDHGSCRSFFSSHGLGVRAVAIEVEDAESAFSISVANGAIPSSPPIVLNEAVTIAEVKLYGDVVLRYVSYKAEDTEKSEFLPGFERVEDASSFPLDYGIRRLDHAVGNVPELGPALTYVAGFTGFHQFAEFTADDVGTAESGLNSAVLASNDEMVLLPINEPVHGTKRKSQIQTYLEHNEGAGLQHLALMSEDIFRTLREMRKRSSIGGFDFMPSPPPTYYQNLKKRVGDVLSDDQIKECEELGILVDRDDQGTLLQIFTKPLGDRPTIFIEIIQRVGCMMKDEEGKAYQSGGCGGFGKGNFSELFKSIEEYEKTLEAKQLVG
As to the kind of experiment: pull down of recombinant HPPD with biotinylated aptamers immobilised on streptavidin beads (SDS-PAGE). The class given is binding. To be noted: for pull down of HPPD (protein band on SDS-PAGE): 10 μg of HPPD, in the absence of protein extract. An excerpt:
To confirm the concept that aptamers isolated using the competitive SELEX approach can be used to identify the interaction partner of interest, the two tightly binding aptamers S116C-C18 and S116D-C8, henceforth referred to as anti-HPPD aptamers, were biotinylated by in vitro transcription, using the appropriate DNA template and biotinylated ApG starter nucleotides (IBA, Göttingen) (Pitulle C. et al. (1992), Gene, 112(1):101-5; Gaur R. K. et al. (2004), Methods Mol. Biol. 252:9-17) and immobilised on paramagnetic streptavidin (SA) beads.
By contrast, the protein band assigned to HPPD was not visible when negative controls (beads only and N47α immobilised on beads) were used.

Data set [2] addresses T2, endogenous HPPD (Arabidopsis thaliana, UniProt P93836).
T2 construct: pull down endogenous HPPD in protein extract, i.e. no recombinant protein was added; from tissue; host or cells: protein extract from freeze-dried powder of Arabidopsis thaliana
T2 sequence (P93836 1-445): T1 sequence (P93836 1-445)
Kind of data set: pull down of endogenous HPPD from protein extract with immobilised aptamer (SDS-PAGE). The class given is binding. To be noted: protein extract only as the source of HPPD, no recombinant protein added. As to the method: For a realistic proof of principle scenario representing attempts to identify an unknown interaction partner, biotinylated aptamer S116D-C8 was immobilised and used in attempts to pull down endogenous HPPD in protein extract, i.e. no recombinant protein was added. Again, appropriate controls such as N47α as a negative control and S116D-C8 together with recombinant HPPD were included.

In data set [3] the target is T3, recombinant, His-tagged HPPD (p-hydroxyphenylpyruvate dioxygenase) (Arabidopsis thaliana, UniProt P93836).
T3 construct: His-tag
T3 sequence (P93836 1-445): T1 sequence (P93836 1-445)
As to the kind of experiment: nitrocellulose filter retention assay, binding of radioactively labelled RNA to recombinant HPPD. To be noted: monoclonal aptamer, recombinant HPPD at various concentrations; read-out: dissociation constant. As to the method:
Recombinant, His-tagged HPPD was targeted as an interaction partner in two SELEX runs, referred to as S115A and S115E, which comprised 12 and 9 cycles, respectively. Briefly, the protein was biotinylated and exposed to the RNA library with a 47 nucleotide random region (N47α) in 20 mM Hepes (pH 7.4), 150 mM NaCl, 3 mM MgCl2, and 1 mg/ml BSA (in vitro selection 5115A) or 20 mM Hepes (pH 7.4), 150 mM NaCl, 3 mM MgCl2, 10% DMSO and 1 mg/ml BSA (in vitro selection S115B). The library N47α consists of a random region of 47 nucleotides which is flanked by fixed sequences at the 5′ and 3′ end that serve as primer annealing sites for the amplification of the selected aptamer sequences via reverse transcription and PCR. The 5′ region additionally contains the sequence of an T7-RNA polymerase promoter that enables the transcription of the PCR DNA template into RNA. The sense sequence of the PCR DNA template is “5″-[…]-N47-[…]-3′ (SEQ. ID No. 1). The T7-RNA polymerase promoter is underlined. The double stranded DNA template was used to transcribe the initial RNA library. The procedures to produce an RNA library and to perform a SELEX experiment are well known to a person skilled in the art and described in, e.g., Methods in Enzymology, Vol 267, Combinatorial Chemistry (1996), Abelson J. N. and Simon M. I., eds. Academic Press, San Diego. Subsequently, the complexes between target and RNA were captured on streptavidin-coated beads and unbound RNA was removed by washing with binding buffer. […] RNA bound to the target protein is retained within the complex on the filter and was quantified by a phosphoimager. Values were calculated as the percentage of total radiolabeled RNA in the reaction.
(§1) The dissociation constant (FIG. 4B) was determined to be 128±11 nM. consistent with strong binding to S115A-C1 to recombinant HPPD.
To determine the binding properties of individual aptamers isolated as part of the mixture of aptamers binding to HPPD in the previous example, aptamers were cloned into a vector, and 24 clones were sequenced. For each experiment out of S116B, S116C and S116D, one of the cloned aptamers subsequently identified as specific ligands to HPPD (termed S116C-C18 (5″-GGGAGAGGAGGGAGAUAGAUAUCAAUAUCGCCACGUUACGAGUACCAAGCUULJ […]-3″ (SEQ. ID. No. 3)), S116B-C4 (5′-[…] UGG-3′ (SEQ. ID. No. 4)) and S116D-C8 (5″-GGGAGAGGAGGG […]-3′) (SEQ. ID. No. 5)) was analysed with respect to the thermodynamics of the binding. […] The dissociation constants determined for S116B-C4, S116C-C18 and S116D-C8, were 740±39, 832±39 and 120±9 nM, respectively, consistent with the view that decreasing the concentration of the interaction partner to 2 pM (experiment S116D) actually yield the most tightly binding aptamer.

Data set [4] deals with control proteins. As to the kind of experiment: nitrocellulose filter retention assay with control proteins as negative controls. The data set is classed as binding. To be noted: HPPD replaced by an equivalent concentration of control proteins. As to the method: Recombinant, His-tagged HPPD was targeted as an interaction partner in two SELEX runs, referred to as S115A and S115E, which comprised 12 and 9 cycles, respectively. Briefly, the protein was biotinylated and exposed to the RNA library with a 47 nucleotide random region (N47α) in 20 mM Hepes (pH 7.4), 150 mM NaCl, 3 mM MgCl2, and 1 mg/ml BSA (in vitro selection 5115A) or 20 mM Hepes (pH 7.4), 150 mM NaCl, 3 mM MgCl2, 10% DMSO and 1 mg/ml BSA (in vitro selection S115B). The library N47α consists of a random region of 47 nucleotides which is flanked by fixed sequences at the 5′ and 3′ end that serve as primer annealing sites for the amplification of the selected aptamer sequences via reverse transcription and PCR. The 5′ region additionally contains the sequence of an T7-RNA polymerase promoter that enables the transcription of the PCR DNA template into RNA. The sense sequence of the PCR DNA template is “5″-[…]-N47-[…]-3′ (SEQ. ID No. 1). The T7-RNA polymerase promoter is underlined. The double stranded DNA template was used to transcribe the initial RNA library. […] RNA bound to the target protein is retained within the complex on the filter and was quantified by a phosphoimager. Values were calculated as the percentage of total radiolabeled RNA in the reaction.
as §1

B1: S116D-C8: monoclonal RNA aptamer, specific ligand to HPPD from competitive SELEX S116D, SEQ. ID. No. 5 (nucleic acid)
chain: GGGAGAGGAGGGAGAUAGAUAUCAAUAAAGUCGGUGACACCACGCAUCCAAAUACCGGUACGCGGAACUAAUAGUUUGUCCUCACGGUGGAUGG
modifications: RNA, backbone not given here
Take B1: the “pull down of HPPD (protein band on SDS-PAGE)” value in data set [1] was “could be used to pull down HPPD”. The “pull down of recombinant HPPD (protein band on SDS-PAGE)” value in data set [1] (different amounts of HPPD, in the presence of increasing amounts of PE) was “could be used to purify conveniently detectable amounts of HPPD”. In addition, the “pull down of endogenous HPPD (protein band on SDS-PAGE)” value in data set [2] was “a protein band was visually detectable”. Further, in data set [3], the Kd amounted to 120 ± 9 nM.

B2: S115A-C1: monoclonal RNA aptamer binding HPPD from classical SELEX run S115A, SEQ. ID. No. 2 (nucleic acid)
chain: GGGAGAGGAGGGAGAUAGAUAUCAACAAUGACUAGCCGUGUAAGUGGUCUCGUACAUCCGAAAAAGACGACCCAGUUUGUCCUCACGGUGGAUGG
modifications: listed as RNA, chemistry not given here
Consider B2, for which the “binding to / retention by control proteins” value in data set [4] is listed as “not by any of the control proteins”. In addition, the Kd in data set [3] was found to be 128 ± 11 nM.

B3: S116B-C4: monoclonal RNA aptamer, specific ligand to HPPD from competitive SELEX S116B, SEQ. ID. No. 4 (nucleic acid)
chain: GGGAGAGGAGGGAGAUAGAUAUCAAGUAACAAAUGAUACUUUCCAAGCAUAAUUCAUUCGCAGCCCGAAUUAAGUUUGUCCUCACGGUGGAUGG
modifications: RNA, backbone not given here
For the molecule B3, the Kd in data set [3] was 740 ± 39 nM.

B4: S116C-C18 (nucleic acid)
DNA: GGGAGAGGAGGGAGAUAGAUAUCAAUAUCGCCACGUUACGAGUACCAAGCUUUAUUUCCGCAGCCCGAUAGAGUUUGUCCUCACGGUGGAUGG
modifications: chemistry not given here
With B4, in data set [1], the “pull down of HPPD (protein band on SDS-PAGE)” value is reported as “could be used to pull down HPPD”. Also, in data set [3], the Kd came to 832 ± 39 nM.
